Experiments:
[1] = target: c-Myc-containing recombinant protein; experiment: SPR (Biacore T200), c-Myc-containing recombinant protein immobilised, soluble Fab injected at 5-80 nM, 1:1 Langmuir fit
[2] = target: c-Myc-containing recombinant protein; experiment: SPR; fold change of KD, WT is itself the reference

Kd [1]: 110 nM | koff [1]: 0.018 s⁻¹ | kon [1]: 160000 M⁻¹ s⁻¹ | Fold change [2]: 1 fold
B1: parental murine Fab of aM (murine monoclonal antibody raised against c-Myc peptide) (Fab, V domains shown)
VH: QIQLVQSGPELKKPGETVRISCKASGYTFTTAGMQWVQKMPGKGLKWIGWINTHSGVPKYAEDFKGRFAFSLETSASTAYLQMTNLNNEDTATYFCARGYGKGGYFAMDYWGQGTSVTVSS
VL: DVVMTQIPFSLPVSLGDQASISCRSSQSLVHSNGNTYLHWYVQKPGQSPKLLIYKVSNRFSGVPDRFSGSGSGTYFTLKISRVEAEDLGVYFCSQSTRVPWTFGGGTKLEIK
